The assay deals with Ca2+/calmodulin-dependent protein kinase II (CaMKII) (mouse (endogenous in striatum)) (UniProt P28652). The experiment in a line: co-IP; endogenous proteins in mouse striatum lysate (20 mM Tris-HCl pH 7.4, 50 mM NaCl, 0.5% NP-40, 10 mM HEPES, 0.5 mM EDTA); 2 μg primary antibody on Protein A/G or Protein G magnetic beads, lysate at 4 °C overnight; western blot; for CaMKII–PPP1CC, WT and Sh3rf2 KO striatum compared. In general terms: A western blot detects proteins with antibodies after separation by electrophoresis.
Chain of UniProt P28652 (P28652 whole entry): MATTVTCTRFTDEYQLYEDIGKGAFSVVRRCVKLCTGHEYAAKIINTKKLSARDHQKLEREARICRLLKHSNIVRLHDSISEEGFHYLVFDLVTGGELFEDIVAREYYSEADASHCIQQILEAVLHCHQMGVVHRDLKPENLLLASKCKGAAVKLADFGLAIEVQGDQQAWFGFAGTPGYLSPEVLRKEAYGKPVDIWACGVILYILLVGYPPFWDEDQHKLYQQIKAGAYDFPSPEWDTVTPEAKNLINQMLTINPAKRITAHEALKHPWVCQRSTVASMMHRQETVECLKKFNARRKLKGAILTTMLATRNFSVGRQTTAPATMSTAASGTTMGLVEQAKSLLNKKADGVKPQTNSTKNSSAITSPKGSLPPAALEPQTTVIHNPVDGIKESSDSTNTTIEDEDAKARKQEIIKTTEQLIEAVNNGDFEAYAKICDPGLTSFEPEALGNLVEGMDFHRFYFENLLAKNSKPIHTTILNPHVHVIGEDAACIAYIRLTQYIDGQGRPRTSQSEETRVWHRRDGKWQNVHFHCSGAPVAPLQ

“PP1 catalytic subunit gamma (PPP1CC) (from UniProt P63087 1-323) (enzyme)” had a reduction of CaMKII–PPP1CC co-precipitate in Sh3rf2 KO against WT striatum of 80%.

These data come from publication PMC12485048.
